This note sets out measurements from paper PMC4967302.

In test [1] the target is CCR5 in crude membranes from CCR5-expressing HEK 293T cells (UniProt P51681). The experiment in a line: radioligand binding; equilibrium saturation binding of 35S-labeled gp120 to crude membranes from CCR5-expressing HEK 293T cells, room temperature, in the presence of 200 nM soluble CD4; non-specific binding measured with 10 µM maraviroc; one-site binding model.
Test [2] has as its target CD4 exposed at the surface of HEK 293T cells (UniProt P01730). Nature of the test: flow cytometry on cells. (In general: In flow cytometry, cells or beads pass a laser one at a time.)

UniProt P51681, sequence (P51681 whole entry): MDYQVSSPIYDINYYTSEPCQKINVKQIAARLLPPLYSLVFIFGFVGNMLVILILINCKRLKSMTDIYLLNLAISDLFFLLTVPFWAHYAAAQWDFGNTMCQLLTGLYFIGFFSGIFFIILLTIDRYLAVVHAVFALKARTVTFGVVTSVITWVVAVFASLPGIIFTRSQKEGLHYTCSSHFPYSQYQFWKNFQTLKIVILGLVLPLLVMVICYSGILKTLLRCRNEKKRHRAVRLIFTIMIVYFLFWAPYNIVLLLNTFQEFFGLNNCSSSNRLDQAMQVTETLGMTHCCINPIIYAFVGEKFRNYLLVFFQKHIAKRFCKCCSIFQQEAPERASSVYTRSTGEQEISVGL

In the case of “purified soluble wt B gp120 (domain or fragment)”, the dissociation constant (Kd) in test [1] is 8.4 nM. Also, the Ki in test [2] came to 3.9 nM.

As usually defined, the Kd is the concentration at which binding is half-saturated. A word on the Ki: it is a dissociation constant, usually derived from enzyme kinetics or from competition with a known ligand. Low values mean higher affinity, high ones lower affinity.
